Measurements as given in patent publication US20240287484.

Legend:
Details in all cases: qPCR; 3 mM MgCl2, 37 C
[1] = tested on: MG167-5 RT (uncultivated organism (metagenomic))
[2] = tested on: T1, MG167-3 RT (uncultivated organism (metagenomic))
T1 sequence: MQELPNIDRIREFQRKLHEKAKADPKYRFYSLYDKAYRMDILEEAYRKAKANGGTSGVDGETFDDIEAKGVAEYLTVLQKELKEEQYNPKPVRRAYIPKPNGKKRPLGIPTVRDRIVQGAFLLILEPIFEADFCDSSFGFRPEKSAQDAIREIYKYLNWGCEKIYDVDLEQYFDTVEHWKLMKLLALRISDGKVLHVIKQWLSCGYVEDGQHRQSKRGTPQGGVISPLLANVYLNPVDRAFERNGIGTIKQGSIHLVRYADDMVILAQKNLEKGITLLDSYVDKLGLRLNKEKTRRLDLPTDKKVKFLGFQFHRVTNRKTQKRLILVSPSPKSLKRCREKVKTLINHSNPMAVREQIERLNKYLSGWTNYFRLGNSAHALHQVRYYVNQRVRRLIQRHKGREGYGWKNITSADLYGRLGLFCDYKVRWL

[3] = tested on: T2, MG165-8 RT (uncultivated organism (metagenomic))
T2 sequence: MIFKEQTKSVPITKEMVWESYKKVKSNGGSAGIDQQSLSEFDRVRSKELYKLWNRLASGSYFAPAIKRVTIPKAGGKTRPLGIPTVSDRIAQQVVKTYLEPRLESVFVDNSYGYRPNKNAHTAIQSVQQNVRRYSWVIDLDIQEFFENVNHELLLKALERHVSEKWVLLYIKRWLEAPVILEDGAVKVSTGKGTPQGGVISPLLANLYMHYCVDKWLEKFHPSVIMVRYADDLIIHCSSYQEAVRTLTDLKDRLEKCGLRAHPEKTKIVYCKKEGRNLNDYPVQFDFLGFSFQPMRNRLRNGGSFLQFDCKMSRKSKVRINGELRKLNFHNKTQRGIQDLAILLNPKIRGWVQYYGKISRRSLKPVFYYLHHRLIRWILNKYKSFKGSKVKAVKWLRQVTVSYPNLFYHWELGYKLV

[4] = tested on: T3, MG165-6 RT (uncultivated organism (metagenomic))
T3 sequence: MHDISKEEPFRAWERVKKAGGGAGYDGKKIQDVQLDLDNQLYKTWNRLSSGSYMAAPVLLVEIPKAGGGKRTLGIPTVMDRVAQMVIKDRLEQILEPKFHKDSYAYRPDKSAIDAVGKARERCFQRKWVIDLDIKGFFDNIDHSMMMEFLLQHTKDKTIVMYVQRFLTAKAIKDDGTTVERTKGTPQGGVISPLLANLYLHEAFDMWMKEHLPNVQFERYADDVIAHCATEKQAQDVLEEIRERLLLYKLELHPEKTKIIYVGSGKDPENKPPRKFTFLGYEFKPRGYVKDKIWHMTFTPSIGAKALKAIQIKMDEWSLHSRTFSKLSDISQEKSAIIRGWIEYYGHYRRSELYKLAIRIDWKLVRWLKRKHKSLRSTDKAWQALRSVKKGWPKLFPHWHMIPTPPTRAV

[5] = tested on: T4, MG165-4 RT (uncultivated organism (metagenomic))
T4 sequence: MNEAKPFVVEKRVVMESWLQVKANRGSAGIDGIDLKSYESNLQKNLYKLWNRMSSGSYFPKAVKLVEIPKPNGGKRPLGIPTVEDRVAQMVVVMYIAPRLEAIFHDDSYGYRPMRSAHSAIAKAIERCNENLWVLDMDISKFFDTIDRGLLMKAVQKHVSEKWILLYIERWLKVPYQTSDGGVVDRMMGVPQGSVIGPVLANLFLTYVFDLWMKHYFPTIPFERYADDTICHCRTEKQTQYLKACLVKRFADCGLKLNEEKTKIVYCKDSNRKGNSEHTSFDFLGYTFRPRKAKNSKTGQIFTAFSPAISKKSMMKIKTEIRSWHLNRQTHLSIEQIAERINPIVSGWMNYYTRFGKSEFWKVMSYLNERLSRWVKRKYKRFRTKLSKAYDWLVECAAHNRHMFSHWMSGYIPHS

[6] = tested on: T5, MG153-39 RT (uncultivated organism (metagenomic))
T5 sequence: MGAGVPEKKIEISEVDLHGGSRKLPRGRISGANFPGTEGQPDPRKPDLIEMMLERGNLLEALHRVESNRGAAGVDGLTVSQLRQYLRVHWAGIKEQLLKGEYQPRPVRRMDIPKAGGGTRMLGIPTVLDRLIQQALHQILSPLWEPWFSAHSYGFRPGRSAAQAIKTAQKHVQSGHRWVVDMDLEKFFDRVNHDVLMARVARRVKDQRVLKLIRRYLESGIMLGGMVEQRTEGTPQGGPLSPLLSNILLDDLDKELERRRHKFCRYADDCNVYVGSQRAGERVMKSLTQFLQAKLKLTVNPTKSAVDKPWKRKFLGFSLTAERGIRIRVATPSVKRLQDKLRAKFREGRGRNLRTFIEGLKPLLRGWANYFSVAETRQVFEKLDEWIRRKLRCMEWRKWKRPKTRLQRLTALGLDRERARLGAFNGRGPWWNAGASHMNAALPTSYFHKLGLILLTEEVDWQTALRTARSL

[7] = tested on: T6, MG153-25 RT (uncultivated organism (metagenomic))
T6 sequence: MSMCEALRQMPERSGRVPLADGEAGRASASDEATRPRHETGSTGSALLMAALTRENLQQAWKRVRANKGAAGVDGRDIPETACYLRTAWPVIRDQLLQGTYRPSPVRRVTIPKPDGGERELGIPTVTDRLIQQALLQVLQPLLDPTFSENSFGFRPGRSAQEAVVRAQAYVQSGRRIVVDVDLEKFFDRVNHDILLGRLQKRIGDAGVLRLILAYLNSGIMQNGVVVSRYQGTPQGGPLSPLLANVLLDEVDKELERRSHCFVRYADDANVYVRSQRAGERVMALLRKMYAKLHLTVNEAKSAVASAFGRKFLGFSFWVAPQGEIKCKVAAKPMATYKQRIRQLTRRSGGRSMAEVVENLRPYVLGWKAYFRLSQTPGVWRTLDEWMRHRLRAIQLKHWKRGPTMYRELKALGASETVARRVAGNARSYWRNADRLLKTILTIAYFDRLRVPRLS

Measured: activity (fold over background)

Chain of MG167-5 RT (uncultivated organism (metagenomic)) (chain, as listed by the source): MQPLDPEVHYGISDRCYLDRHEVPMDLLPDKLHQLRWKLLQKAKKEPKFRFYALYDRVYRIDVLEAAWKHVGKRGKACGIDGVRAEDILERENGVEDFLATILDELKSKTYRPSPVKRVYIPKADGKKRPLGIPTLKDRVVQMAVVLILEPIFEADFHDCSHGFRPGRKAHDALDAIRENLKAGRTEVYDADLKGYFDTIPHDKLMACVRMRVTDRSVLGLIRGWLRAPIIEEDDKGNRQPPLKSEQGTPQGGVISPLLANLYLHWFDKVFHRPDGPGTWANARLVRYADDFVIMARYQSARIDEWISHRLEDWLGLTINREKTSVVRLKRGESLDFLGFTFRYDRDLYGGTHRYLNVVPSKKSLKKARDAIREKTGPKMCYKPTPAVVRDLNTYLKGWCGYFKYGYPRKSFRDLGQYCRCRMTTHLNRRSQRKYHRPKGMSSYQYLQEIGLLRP

200 nt RNA template annealed to DNA primer
> 10: [1] | [2] | [3] | [4] | [5] | [6] | [7]
